From the supplement of paper PMC11316812 come the findings set out here.

One data set deals with hTERT-HMEC. Briefly: percentage of EdU-negative (G0-arrested) nuclei per well, 72 h; higher = more G0 arrest. Particulars: reference: sequence is the full UniProt precursor, the tested protein was the secreted form or ectodomain.
For a further data set, the system named is MCF7. The data set is described as above. The conditions noted are these: reference: sequence is the full UniProt precursor, the tested protein was the secreted form or ectodomain.
Setting [1] is: protein concentration 0.01825 µM.
Setting [2] is: protein concentration 0.1825 µM.
The mark [3] stands for this setting: protein concentration 0.0225 µM.
Where [4] appears, read: protein concentration 0.02425 µM.
Where [5] appears, read: protein concentration 0.2425 µM.
Setting [6] is: protein concentration 0.03125 µM.
The mark [7] stands for this setting: protein concentration 0.3125 µM.
Setting [8] is: protein concentration 0.0165 µM.
The mark [9] stands for this setting: protein concentration 0.023405 µM.
The mark [10] stands for this setting: protein concentration 0.23405 µM.

± gives the standard deviation of the averaged measurements.
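Note: secreted proteins added to cultured cells, EdU pulse at the end, nuclei found by Hoechst imaging, EdU status from nuclear versus surrounding ring intensity ratio, PBS as neutral control.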

“MKTALILLSILGMACAFSMKNLHRRVKIEDSEENGVFKYRPRYYLYKHAYFYPHLKRFPVQGSSDSSEENGDDSSEEEEEEEETSNEGENNEESNEDEDSEAENTTLSATTLGYGEDATPGTGYTGLAAIQLPKKAGDITNKATKEKESDEEEEEEEEGNENEESEAEVDENEQGINGTSTNSTEAENGNGSSGGDNGEEGEEESVTGANAEDTTETGRQGKGTSKTTTSPNGGFEPTTPPQVYRTTSPPFGKTTTVEYEGEYEYTGANEYDNGYEIYESENGEPRGDNYRAYEDEYSYFKGQGYDGYDGQNYYHHQ”: the “percentage of EdU-negative” value in the data set with hTERT-HMEC (setting [1]) was 5.184 ± 0.032%; in the data set with hTERT-HMEC (setting [2]) it was 5.29 ± 1.4%; in the data set on MCF7 (setting [1]), 21.2 ± 2.7%; in the data set with MCF7 (setting [2]), 24.2 ± 2.1%.

For the sequence “MKTGHFEIVTMLLATMILVDIFQVKAEVLDMADNAFDDEYLKCTDRMEIKYVPQLLKEEKASHQQLDTVWENAKAKWAARKTQIFLPMNFKDNHGIALMAYISEAQEQTPFYHLFSEAVKMAGQSREDYIYGFQFKAFHFYLTRALQLLRKPCEASSKTVVYRTSQGTSFTFGGLNQARFGHFTLAYSAKPQAANDQLTVLSIYTCLGVDIENFLDKESERITLIPLNEVFQVSQEGAGNNLILQSINKTCSHYECAFLGGLKTENCIENLEYFQPIYVYNPGEKNQKLEDHSEKNWKLEDHGEKNQKLEDHGVKILEPTQIPGMKIPEPFPLPEDKSQGNINNPTPGPVPVPGPKSHPSASSGKLLLPQFGMVIILISVSAINLFVAL”, the “percentage of EdU-negative” value was determined as 4.51 ± 0.24% in the data set with hTERT-HMEC (setting [3]), 5.22 ± 0.84% with hTERT-HMEC (protein concentration 0.225 µM), 24.99 ± 0.071% with MCF7 (setting [3]) and 27.3 ± 1.4% in the data set with MCF7 (protein concentration 0.225 µM).

Take “MKTLAGLVLGLVIFDAAVTAPTLESINYDSETYDATLEDLDNLYNYENIPVDKVEIEIATVMPSGNRELLTPPPQPEKAQEEEEEEESTPRLIDGSSPQEPEFTGVLGPHTNEDFPTCLLCTCISTTVYCDDHELDAIPPLPKNTAYFYSRFNRIKKINKNDFASLSDLKRIDLTSNLISEIDEDAFRKLPQLRELVLRDNKIRQLPELPTTLTFIDISNNRLGRKGIKQEAFKDMYDLHHLYLTDNNLDHIPLPLPENLRALHLQNNNILEMHEDTFCNVKNLTYIRKALEDIRLDGNPINLSKTPQAYMCLPRLPVGSLV”: the “percentage of EdU-negative” value was determined as 4.4 ± 0.046% in the data set on hTERT-HMEC (setting [4]), 6.32 ± 0.2% with hTERT-HMEC (setting [5]), 23.5 ± 1% with MCF7 (setting [4]) and 26.2 ± 2.6% with MCF7 (setting [5]).

For “MKTLFLGVTLGLAAALSFTLEEEDITGTWYVKAMVVDKDFPEDRRPRKVSPVKVTALGGGNLEATFTFMREDRCIQKKILMRKTEEPGKFSAYGGRKLIYLQELPGTDDYVFYCKDQRRGGLRYMGKLVGRNPNTNLEALEEFKKLVQHKGLSEEDIFMPLQTGSCVLEH [Q9NY56]”, the “percentage of EdU-negative” value amounted to 5 ± 0.88% with hTERT-HMEC (setting [6]), 6.83 ± 0.95% in the data set with hTERT-HMEC (setting [7]), 25.1 ± 0.74% with MCF7 (setting [6]) and 25.7 ± 0.44% with MCF7 (setting [7]).

On to “MKTLLLLAVIMIFGLLQAHGNLVNFHRMIKLTTGKEAALSYGFYGCHCGVGGRGSPKDATDRCCVTHDCCYKRLEKRGCGTKFLSYKFSNSGSRITCAKQDSCRSQLCECDKAAATCFARNKTTYNKKYQYYSNKHCRGSTPRC”, for which the “percentage of EdU-negative” value in the data set on hTERT-HMEC (setting [8]) came to 4.75 ± 0.11%; with hTERT-HMEC (protein concentration 0.165 µM), 6.7 ± 0.9%; in the data set with MCF7 (setting [8]), 25.3 ± 2.7%; in the data set with MCF7 (protein concentration 0.165 µM), 29.2 ± 0.99%.

Consider “MKTLQFFFLFCCWKAICCNSCELTNITIAIEKEECRFCISINTTWCAGYCYTRDLVYKDPARPKIQKTCTFKELVYETVRVPGCAHHADSLYTYPVATQCHCGKCDSDSTDCTVRGLGPSYCSFGEMKE”, for which the “percentage of EdU-negative” value amounted to 5.26 ± 0.36% in the data set with hTERT-HMEC (setting [6]), 4.61 ± 0.34% in the data set with hTERT-HMEC (setting [7]), 25.3 ± 0.9% with MCF7 (setting [6]) and 26.6 ± 1.5% in the data set with MCF7 (setting [7]).

In the case of “MKTPWKVLLGLLGAAALVTIITVPVVLLNKGTDDATADSRKTYTLTDYLKNTYRLKLYSLRWISDHEYLYKQENNILVFNAEYGNSSVFLENSTFDEFGHSINDYSISPDGQFILLEYNYVKQWRHSYTASYDIYDLNKRQLITEERIPNNTQWVTWSPVGHKLAYVWNNDIYVKIEPNLPSYRITWTGKEDIIYNGITDWVYEEEVFSAYSALWWSPNGTFLAYAQFNDTEVPLIEYSFYSDESLQYPKTVRVPYPKAGAVNPTVKFFVVNTDSLSSVTNATSIQITAPASMLIGDHYLCDVTWATQERISLQWLRRIQNYSVMDICDYDESSGRWNCLVARQHIEMSTTGWVGRFRPSEPHFTLDGNSFYKIISNEEGYRHICYFQIDKKDCTFITKGTWEVIGIEALTSDYLYYISNEYKGMPGGRNLYKIQLSDYTKVTCLSCELNPERCQYYSVSFSKEAKYYQLRCSGPGLPLYTLHSSVNDKGLRVLEDNSALDKMLQNVQMPSKKLDFIILNETKFWYQMILPPHFDKSKKYPLLLDVYAGPCSQKADTVFRLNWATYLASTENIIVASFDGRGSGYQGDKIMHAINRRLGTFEVEDQIEAARQFSKMGFVDNKRIAIWGWSYGGYVTSMVLGSGSGVFKCGIAVAPVSRWEYYDSVYTERYMGLPTPEDNLDHYRNSTVMSRAENFKQVEYLLIHGTADDNVHFQQSAQISKALVDVGVDFQAMWYTDEDHGIASSTAHQHIYTHMSHFIKQCFSLP”, the “percentage of EdU-negative” value in the data set on hTERT-HMEC (protein concentration 0.009 µM) worked out at 4.55 ± 0.2%; with hTERT-HMEC (setting [9]), 5.17 ± 1.7%; in the data set with hTERT-HMEC (protein concentration 0.09 µM), 6.07 ± 0.24%; with hTERT-HMEC (setting [10]), 6.28 ± 0.073%; in the data set with MCF7 (protein concentration 0.009 µM) it was 24.2 ± 0.48%; in the data set on MCF7 (setting [9]) it was 24.2 ± 0.77%. Further, the “percentage of EdU-negative” value in the data set on MCF7 (protein concentration 0.09 µM) amounted to 26.5 ± 0.49%; in the data set with MCF7 (setting [10]), 29.2 ± 1.1%.
